Test results from IntAct's records for PubMed 20427285.

B1: Protein Z-dependent protease inhibitor (Homo sapiens), Q9UK55 (parent)
chain: MKVVPSLLLSVLLAQVWLVPGLAPSPQSPETPAPQNQTSRVVQAPKEEEEDEQEASEEKASEEEKAWLMASRQQLAKETSNFGFSLLRKISMRHDGNMVFSPFGMSLAMTGLMLGATGPTETQIKRGLHLQALKPTKPGLLPSLFKGLRETLSRNLELGLTQGSFAFIHKDFDVKETFFNLSKRYFDTECVPMNFRNASQAKRLMNHYINKETRGKIPKLFDEINPETKLILVDYILFKGKWLTPFDPVFTEVDTFHLDKYKTIKVPMMYGAGKFASTFDKNFRCHVLKLPYQGNATMLVVLMEKMGDHLALEDYLTTDLVETWLRNMKTRNMEVFFPKFKLDQKYEMHELLRQMGIRRIFSPFADLSELSATGRNLQVSRVLQRTVIEVDERGTEAVAGILSEITAYSMPPVIKVDRPFHFMIYEETSGMLLFLGRVVNPTLL

Assays:
[1] = variants of: B1; details: with fa10_human F10, P00742
[2] = variants of: B1; details: with proz_human PROZ
[3] = variants of: B1; details: with proz_human PROZ; remark: listed apart in the source

Variant | effect of a mutation on the interaction [1] | effect of a mutation on the interaction [2] | effect of a mutation on the interaction [3]
D95A;D259A;K260A;D314A | with no effect |  | 
D95A;D259A;K260A;E404A |  | disrupting interaction strength | disrupting interaction strength
E334A | with no effect | with no effect | 
E404A | with no effect | with no effect | 
Y408R | decreasing interaction strength |  | 
E334A;E404A | with no effect | with no effect | 
